Measured values published in doi:10.1101/2020.05.01.070730 (bioRxiv, 2020).

T1: MutS R272A (Pseudomonas aeruginosa, UniProt Q9HY08 1-855, R272A)
T1 sequence: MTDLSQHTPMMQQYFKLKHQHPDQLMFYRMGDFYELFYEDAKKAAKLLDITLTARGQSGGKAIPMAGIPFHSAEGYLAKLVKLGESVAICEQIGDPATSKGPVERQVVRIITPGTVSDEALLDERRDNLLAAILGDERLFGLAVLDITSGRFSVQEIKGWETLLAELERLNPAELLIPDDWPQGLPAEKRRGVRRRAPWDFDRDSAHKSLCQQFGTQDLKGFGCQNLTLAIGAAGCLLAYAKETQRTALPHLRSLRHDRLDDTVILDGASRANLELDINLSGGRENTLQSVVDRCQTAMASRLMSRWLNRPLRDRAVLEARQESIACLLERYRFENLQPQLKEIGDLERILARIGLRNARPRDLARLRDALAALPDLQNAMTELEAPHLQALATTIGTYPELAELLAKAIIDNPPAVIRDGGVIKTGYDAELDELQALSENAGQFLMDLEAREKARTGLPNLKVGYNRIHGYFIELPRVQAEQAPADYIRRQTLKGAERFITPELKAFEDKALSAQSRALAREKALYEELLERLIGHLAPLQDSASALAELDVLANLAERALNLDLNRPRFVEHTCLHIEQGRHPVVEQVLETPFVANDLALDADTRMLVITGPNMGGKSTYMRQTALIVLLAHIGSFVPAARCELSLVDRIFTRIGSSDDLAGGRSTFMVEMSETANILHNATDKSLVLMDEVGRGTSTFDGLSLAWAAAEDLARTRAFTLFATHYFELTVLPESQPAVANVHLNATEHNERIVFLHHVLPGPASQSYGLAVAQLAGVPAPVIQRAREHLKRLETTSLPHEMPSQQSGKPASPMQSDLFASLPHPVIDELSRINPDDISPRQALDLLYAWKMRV

T2: MutS N279A (Pseudomonas aeruginosa, UniProt Q9HY08 1-855, N279A)
T2 sequence: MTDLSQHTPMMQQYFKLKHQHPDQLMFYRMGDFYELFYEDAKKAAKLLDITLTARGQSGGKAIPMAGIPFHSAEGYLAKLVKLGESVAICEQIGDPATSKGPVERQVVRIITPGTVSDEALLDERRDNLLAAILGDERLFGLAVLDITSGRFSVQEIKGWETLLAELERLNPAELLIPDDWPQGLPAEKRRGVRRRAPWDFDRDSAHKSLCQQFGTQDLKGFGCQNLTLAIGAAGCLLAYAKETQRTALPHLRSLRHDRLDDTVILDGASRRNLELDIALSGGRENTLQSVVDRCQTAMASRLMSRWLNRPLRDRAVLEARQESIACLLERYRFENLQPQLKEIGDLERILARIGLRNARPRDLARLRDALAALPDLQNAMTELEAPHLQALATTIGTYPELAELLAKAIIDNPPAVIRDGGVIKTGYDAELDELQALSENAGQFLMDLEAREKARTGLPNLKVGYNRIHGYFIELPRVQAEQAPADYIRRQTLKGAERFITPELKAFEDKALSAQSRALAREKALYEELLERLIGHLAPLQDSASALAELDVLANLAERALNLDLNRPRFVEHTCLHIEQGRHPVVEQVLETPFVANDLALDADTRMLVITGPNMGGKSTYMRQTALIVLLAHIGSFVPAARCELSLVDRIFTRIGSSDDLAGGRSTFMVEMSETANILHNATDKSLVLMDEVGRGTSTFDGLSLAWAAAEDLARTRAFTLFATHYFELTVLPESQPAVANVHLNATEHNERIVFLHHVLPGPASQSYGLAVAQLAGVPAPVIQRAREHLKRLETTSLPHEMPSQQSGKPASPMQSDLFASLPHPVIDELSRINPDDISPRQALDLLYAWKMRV

T3: MutS R842E (Pseudomonas aeruginosa, UniProt Q9HY08 1-855, R842E)
T3 sequence: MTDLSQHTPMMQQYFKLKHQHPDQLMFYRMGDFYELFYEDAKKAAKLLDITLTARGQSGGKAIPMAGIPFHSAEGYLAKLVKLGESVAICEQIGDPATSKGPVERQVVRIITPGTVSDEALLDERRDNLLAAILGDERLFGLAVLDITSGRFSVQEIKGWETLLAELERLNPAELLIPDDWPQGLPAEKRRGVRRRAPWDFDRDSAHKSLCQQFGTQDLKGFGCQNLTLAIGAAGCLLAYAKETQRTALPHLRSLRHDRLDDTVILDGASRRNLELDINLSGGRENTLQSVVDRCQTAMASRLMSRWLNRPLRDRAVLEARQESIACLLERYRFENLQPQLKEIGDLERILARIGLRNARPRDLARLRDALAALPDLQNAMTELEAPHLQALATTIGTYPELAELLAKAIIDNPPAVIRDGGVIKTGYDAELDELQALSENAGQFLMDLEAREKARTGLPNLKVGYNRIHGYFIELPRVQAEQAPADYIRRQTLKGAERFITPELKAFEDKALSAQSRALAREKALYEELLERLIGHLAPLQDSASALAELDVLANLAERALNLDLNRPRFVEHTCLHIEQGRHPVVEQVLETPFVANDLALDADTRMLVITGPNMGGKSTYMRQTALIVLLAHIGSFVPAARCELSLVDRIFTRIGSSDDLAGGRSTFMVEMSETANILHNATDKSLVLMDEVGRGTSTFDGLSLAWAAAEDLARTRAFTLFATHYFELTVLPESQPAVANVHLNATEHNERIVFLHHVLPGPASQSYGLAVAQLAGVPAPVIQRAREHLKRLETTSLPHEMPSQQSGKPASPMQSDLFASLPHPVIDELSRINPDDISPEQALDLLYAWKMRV

B1: GT-pDNA (GT 8 nt from 3'-OH) (dsDNA)
DNA 1: ATGTGAATCAGTATGGTTGCTATCTGC
DNA 2: ATTTCCTTCAGCAGATAGTAACCATACTGATTCACAT
B2: dsDNA (dsDNA)
DNA 1: ATGTGAATCAGTATGGTTACTATCTGCTGAAGGAAAT
DNA 2: ATTTCCTTCAGCAGATAGTAACCATACTGATTCACAT
B3: GT-dsDNA (GT 18 nt from 3' end) (dsDNA)
DNA 1: ATGTGAATCAGTATGGTTGCTATCTGCTGAAGGAAAT
DNA 2: ATTTCCTTCAGCAGATAGTAACCATACTGATTCACAT
B4: pDNA (AT) (dsDNA)
DNA 1: ATGTGAATCAGTATGGTTACTATCTGC
DNA 2: ATTTCCTTCAGCAGATAGTAACCATACTGATTCACAT

Columns and labels:
[1] = target: T1, MutS R272A; experiment: EMSA
[2] = target: T2, MutS N279A; experiment: EMSA
[3] = target: T3, MutS R842E; experiment: native PAGE shift

Binder | Kd [1] | Kd [2] | binding result [3]
B1 | 49.3 ± 1 nM | 63.2 ± 2.4 nM | 
B2 | 309 ± 20.9 nM | 358 ± 36.9 nM | binds
B3 | 38.2 ± 0.7 nM | 41.3 ± 5.2 nM | binds
B4 | 143 ± 8.6 nM | 430 ± 18 nM | binds
